Patent US9018171B2, “Uses of an immunomodulatory protein (GMI) from Ganoderma microsporum” (Mycomagic Biotechnology Co., Ltd., priority 2010, dated 2015)
Entries after “also recorded” stand apart in the source; their conditions may differ.

Columns and labels:
SN12C = assay: NCI60 in vitro screening, Renal Cancer; type: cell-based
HT29 = assay: NCI60 in vitro screening, Colon Cancer; type: cell-based
K-562 = assay: NCI60 in vitro screening, Leukemia; type: cell-based
SK-MEL-2 = assay: NCI60 in vitro screening, Melanoma; type: cell-based; settings: SK-MEL-2, one dose
Akt = assay: Western blotting, EGF-induced phosphorylation; type: cell-based, human; settings: A549 cells, pretreated 8 h, EGF 10 minutes
Experimental: (§1) A549 cells (5×10^5 cells/60 mm) were pretreated with various concentrations of GMI (4, 16 μg/ml) or AG1478 (EGFR inhibitors) for 8 hours prior to incubation for 10 minutes with EGF (as indicated). Cell lysates were subject to immunoblotting with phospho-specific EGFR (Y1068) (A and B), anti-phospho-AKT (A), anti-AKT (A), anti-phospho-GSK3β (A) or anti-phospho-STAT3 antibodies (B). Protein loading was determined by Western blotting against β-actin (A and B).
(§2) Total cell lysates were prepared in RIPA buffer (100 μl in 60 mm in dish). Fifty μg of lysate were loaded onto an 8% polyacrylamide gel and analyzed by SDS gel electrophoresis. After transfer to PVDF (Amersham), blots were blocked with 5% skim milk in TBS (10 mM Tris-CL pH7.5, 150 mM NaCl) containing 0.2% Tween-20. Blots were probed with antibodies (at their recommended dilutions) in 5% skim milk in TBS overnight at 4° C. Following detection with the appropriate horseradish-peroxidase conjugated secondary antibody (Cell Signaling), blots were developed by enhanced chemiluminescence according to the manufacturer's directions (Perkin Elmer Life Sciences). All experiments were performed in duplicate.
(§3) To assess whether GMI mediates and/or inhibits phosphorylation of Akt and Stat3, the invention investigated the effect of GMI on the phosphorylation status of Akt and Stat3 in A549 cells treated with various concentrations of GMI for 8 h.

EGFR = assay: Western blotting, EGF-induced phosphorylation; type: cell-based, human; settings: A549 cells, pretreated 8 h, EGF 10 minutes
Experimental: as §1, §2, §3

Stat3 = assay: Western blotting, EGF-induced phosphorylation; type: cell-based, human; settings: A549 cells, pretreated 8 h, EGF 10 minutes
Experimental: as §1, §2, §3

OVCAR-3 = assay: NCI60 in vitro screening, Ovarian Cancer; type: cell-based
NCI60 tumour cell lines = assay: NCI60 in vitro screening, one dose, whole panel; type: cell-based; settings: mean over all cell lines
A549 cells = assay: Cell invasion assay (modified Boyden chamber, Matrigel); type: cell-based, human
Experimental: A549 cells (2×10^4 cells/well) were seeded onto the upper chamber of membrane and treated with different concentrations of GMI (4, 8, 16 μg/ml) for 2 hours. The bottom chamber was filled with DMEM supplemented with EGF 10 ng/ml or 100 ng/ml. After about 24 h, the invasive A549 cells passed through the membrane and were quantified by counting the cells that migrated onto the membrane. Cells were fixed, stained, and counted as described in the text. The data represent mean±SD.
Cell invasion assays were performed using modified Boyden chambers 6.5 mm in diameter, with […] porous (8 μm) polycarbonate membrane separating the two chambers (Transwell; Costar, Cambridge, Mass.). The membrane of the upper chamber was coated with Matrigel (0.3 mg/mL; BD Biosciences Discovery Labware) for 3 hours. Condition medium was prepared from A549 cells which were pretreated with or without GMI, LY294002 (50 μM), or AG1478 (2 μM) for 8 h. To the medium of the bottom chamber was added 10% FBS-DMEM containing EGF (10 ng/ml) or condition medium. Cells were trypsinized, centrifuged, and resuspended at 4×10^5 cells/mL in 0.5% FBS-DMEM. After 24 h incubation, the cells on the upper well and the membranes coated with Matrigel were fixed with methanol, and stained with 20% Giemsa solution (Merck). The cells that were attached to the lower surface of the polycarbonate filter were counted under a light microscope (magnification, X 100). The experiments were performed in triplicate.

SK-OV-3 = assay: NCI60 in vitro screening, Ovarian Cancer; type: cell-based
CAKI-1 = assay: NCI60 in vitro screening, Renal Cancer; type: cell-based
MDA-MB-468 = assay: NCI60 in vitro screening, Breast Cancer; type: cell-based
MDA-MB-435 = assay: NCI60 in vitro screening, Melanoma; type: cell-based

B1: GMI: immunomodulatory protein from Ganoderma microsporum, amino acid sequence SEQ ID NO: 3, manufactured by Mycomagic Biotechnology Co., Ltd. (protein, listed as Ganoderma microsporum)
chain: MSDTALIFTLAWNVKQLAFDYTPNWGRGRPSSFIDTVTFPTVLTDKAYTYRVVVSGKDLGVRPSYAVESDGSQKINFLEYNSGYGIADTNTIQVYVIDPDTGNNFIVAQWN
For B1, the TGI (SN12C) was greater than 1.25E2, the “Percent Growth” value (SN12C; Log10 Concentration 0.1) was 99% and the “Percent Growth” value (SN12C; Log10 Concentration 1.1) was 81%. For the same molecule, the “Percent Growth” value (SN12C; Log10 Concentration 2.1) was 30%, the “Percent Growth” value (SN12C; Log10 Concentration −0.9) was 104% and the “Percent Growth” value (SN12C; Log10 Concentration −1.9) was 102%. The GI50 (SN12C; in µg/mL) was 5.05E1, the “Growth Percent” value (SN12C; one dose) was 74.30% and the TGI (HT29; HT29) was greater than 1.25E2. The “Percent Growth” value (HT29; HT29, Log10 Concentration 0.1) was 98%, the “Percent Growth” value (HT29; HT29, Log10 Concentration 1.1) was 57% and the “Percent Growth” value (HT29; HT29, Log10 Concentration 2.1) was 22%. For the same molecule, the “Percent Growth” value (HT29; HT29, Log10 Concentration −0.9) was 99%, the “Percent Growth” value (HT29; HT29, Log10 Concentration −1.9) was 100% and the “Growth Percent” value (HT29; HT29, one dose) was 28.36%. For the same molecule, the GI50 (HT29; HT29, in µg/mL) was 1.95E1, the TGI (K-562; K-562) was greater than 1.25E2 and the “Percent Growth” value (K-562; K-562, Log10 Concentration 0.1) was 101%. For the same molecule, the “Percent Growth” value (K-562; K-562, Log10 Concentration 1.1) was 97%, the “Percent Growth” value (K-562; K-562, Log10 Concentration 2.1) was 90% and the “Percent Growth” value (K-562; K-562, Log10 Concentration −0.9) was 98%. The “Percent Growth” value (K-562; K-562, Log10 Concentration −1.9) was 96%, the “Growth Percent” value (K-562; K-562, one dose) was 125.37% and the “Growth Percent” value (SK-MEL-2) was 105.92%. For the same molecule, the “EGF-induced activation (phosphorylation) of Akt” value (Akt) was “significantly inhibits”, the “EGF-induced activation (phosphorylation) of EGFR” value (EGFR) was “significantly inhibits” and the “EGF-induced activation (phosphorylation) of Stat3” value (Stat3) was “little effect”. The TGI (OVCAR-3; OVCAR-3) was greater than 1.25E2, the “Percent Growth” value (OVCAR-3; OVCAR-3, Log10 Concentration 0.1) was 108% and the “Percent Growth” value (OVCAR-3; OVCAR-3, Log10 Concentration 1.1) was 85%. The “Percent Growth” value (OVCAR-3; OVCAR-3, Log10 Concentration 2.1) was 26%, the “Percent Growth” value (OVCAR-3; OVCAR-3, Log10 Concentration −0.9) was 102% and the “Percent Growth” value (OVCAR-3; OVCAR-3, Log10 Concentration −1.9) was 99%. The “Growth Percent” value (OVCAR-3; OVCAR-3, one dose) was 94.57%, the GI50 (OVCAR-3; OVCAR-3, in µg/mL) was 4.90E1 and the “Growth Percent, Mean” value (NCI60 tumour cell lines) was 64.66%. The “EGF-promoted invasion reduced to” value (A549 cells; GMI 4 μg/ml, EGF) was 52%, the invaded cell number (A549 cells; GMI 4 μg/ml, EGF, decreased from 2515±212) was 1306±30 and the “invasion reduced to” value (A549 cells; GMI 4 μg/ml, without EGF) was 22%. For the same molecule, the invaded cell number (A549 cells; GMI 4 μg/ml, without EGF, decreased from 1895±37) was 419±6, the “EGF-promoted invasion reduced to” value (A549 cells; GMI 16 μg/ml, EGF) was “less than 5%” and the invaded cell number (A549 cells; GMI 16 μg/ml, EGF, decreased from 2515±212) was 121±39. The “invasion reduced to” value (A549 cells; GMI 16 μg/ml, without EGF) was “less than 9%”, the invaded cell number (A549 cells; GMI 16 μg/ml, without EGF, decreased from 1895±37) was 61±3 and the “EGF-promoted invasion of A549 cells” value (A549 cells; increasing concentrations of GMI, EGF) was “significantly inhibits; also recorded: dose-dependent decrease in EGF-promoted invasion”. The “invasion of A549 cells” value (A549 cells; increasing concentrations of GMI, without EGF) was “dose-dependent decrease in invasion”, the TGI (SK-OV-3; SK-OV-3) was greater than 1.25E2 and the “Percent Growth” value (SK-OV-3; SK-OV-3, Log10 Concentration 0.1) was 107%. For the same molecule, the “Percent Growth” value (SK-OV-3; SK-OV-3, Log10 Concentration 1.1) was 94%, the “Percent Growth” value (SK-OV-3; SK-OV-3, Log10 Concentration 2.1) was 55% and the “Percent Growth” value (SK-OV-3; SK-OV-3, Log10 Concentration −0.9) was 103%. For the same molecule, the “Percent Growth” value (SK-OV-3; SK-OV-3, Log10 Concentration −1.9) was 103%, the “Growth Percent” value (SK-OV-3; SK-OV-3, one dose) was 89.18% and the TGI (CAKI-1; CAKI-1) was 7.29E1. The “Percent Growth” value (CAKI-1; CAKI-1, Log10 Concentration 0.1) was 98%, the “Percent Growth” value (CAKI-1; CAKI-1, Log10 Concentration 1.1) was 47% and the “Percent Growth” value (CAKI-1; CAKI-1, Log10 Concentration 2.1) was −14%. The “Percent Growth” value (CAKI-1; CAKI-1, Log10 Concentration −0.9) was 100%, the “Percent Growth” value (CAKI-1; CAKI-1, Log10 Concentration −1.9) was 100% and the “Growth Percent” value (CAKI-1; CAKI-1, one dose) was 96.04%. For the same molecule, the GI50 (CAKI-1; CAKI-1, in µg/mL) was 1.08E1, the TGI (MDA-MB-468; MDA-MB-468) was 1.18E1 and the “Percent Growth” value (MDA-MB-468; MDA-MB-468, Log10 Concentration 0.1) was 115%. For the same molecule, the “Percent Growth” value (MDA-MB-468; MDA-MB-468, Log10 Concentration 1.1) was −3%, the “Percent Growth” value (MDA-MB-468; MDA-MB-468, Log10 Concentration 2.1) was −24% and the “Percent Growth” value (MDA-MB-468; MDA-MB-468, Log10 Concentration −0.9) was 100%. The “Percent Growth” value (MDA-MB-468; MDA-MB-468, Log10 Concentration −1.9) was 104%, the “Growth Percent” value (MDA-MB-468; MDA-MB-468, one dose) was 50.90% and the GI50 (MDA-MB-468; MDA-MB-468, in µg/mL) was 4.45E0. The TGI (MDA-MB-435; MDA-MB-435) was greater than 1.25E2, the “Percent Growth” value (MDA-MB-435; MDA-MB-435, Log10 Concentration 0.1) was 91% and the “Percent Growth” value (MDA-MB-435; MDA-MB-435, Log10 Concentration 1.1) was 85%. The “Percent Growth” value (MDA-MB-435; MDA-MB-435, Log10 Concentration 2.1) was 3%, the “Percent Growth” value (MDA-MB-435; MDA-MB-435, Log10 Concentration −0.9) was 96% and the “Percent Growth” value (MDA-MB-435; MDA-MB-435, Log10 Concentration −1.9) was 101%. The “Growth Percent” value (MDA-MB-435; MDA-MB-435, one dose) was 79.29% and the GI50 (MDA-MB-435; MDA-MB-435, in µg/mL) was 3.34E1.
